This is an account of results in patent publication US20210032365A1 (Chugai, published 2021).

Like-named read-outs stand apart in the source and are kept apart here.

Assay [1] concerns the target T1, Serum-derived human C1s (human, UniProt P09871 16-688).
T1 construct: The analyte was C1s purified from serum; also called hC1s
T1 sequence: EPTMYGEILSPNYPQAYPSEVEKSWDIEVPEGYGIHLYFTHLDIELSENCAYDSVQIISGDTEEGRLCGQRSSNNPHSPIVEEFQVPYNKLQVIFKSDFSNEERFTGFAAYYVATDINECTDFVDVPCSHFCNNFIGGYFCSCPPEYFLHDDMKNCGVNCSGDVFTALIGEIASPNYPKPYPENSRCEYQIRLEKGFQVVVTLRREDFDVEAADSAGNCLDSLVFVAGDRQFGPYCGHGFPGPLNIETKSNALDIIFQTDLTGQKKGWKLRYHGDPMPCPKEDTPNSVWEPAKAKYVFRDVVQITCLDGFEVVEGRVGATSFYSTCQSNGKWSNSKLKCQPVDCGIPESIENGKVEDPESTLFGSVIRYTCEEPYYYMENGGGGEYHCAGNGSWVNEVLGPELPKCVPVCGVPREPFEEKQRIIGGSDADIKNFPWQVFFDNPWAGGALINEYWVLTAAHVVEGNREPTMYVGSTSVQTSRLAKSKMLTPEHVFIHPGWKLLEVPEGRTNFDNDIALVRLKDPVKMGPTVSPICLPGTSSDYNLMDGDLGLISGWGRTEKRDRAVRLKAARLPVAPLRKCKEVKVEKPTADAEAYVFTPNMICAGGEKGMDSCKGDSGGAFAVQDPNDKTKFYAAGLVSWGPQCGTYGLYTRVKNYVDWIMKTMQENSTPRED
The experiment in a line: SPR Biacore T200, 37 C, antibody captured on protein A/G, pH 7.4, 1.2 mM CaCl2. As to the method: (§1) The binding affinity of all histidine-substituted variants at pH 7.4 and pH 5.8 were determined at 37 degrees C. using Biacore T200 instrument (GE Healthcare). Recombinant Protein A/G (Pierce) was immobilized onto all flow cells of a CM4 sensor chip using amine coupling kit (GE Healthcare). Antibodies and analytes were prepared in 7(+) buffer (20 mM ACES, 150 mM NaCl, 1.2 mM CaCl2, 0.05% Tween 20, 0.005% NaN3, pH 7.4) or 5(+) buffer (20 mM ACES, 150 mM NaCl, 1.2 mM CaCl2), 0.05% Tween 20, 0.005% NaN3, pH 5.8). Each antibody was captured onto the sensor surface by protein A/G. Antibody capture levels were aimed at 200 resonance unit (RU). […] Sensor surface was regenerated each cycle with 10 mM Glycine-HCl pH 1.5. […] An additional dissociation phase at pH 5.8 was integrated immediately after the dissociation phase at pH 7.4. This dissociation rate in 5(+) buffer was determined by processing and fitting data using Scrubber 2.0 (BioLogic Software) curve fitting software.
On the technique in general: In SPR one partner is held on a chip, and binding of the other changes the refractive index at the surface.

In assay [2] the target is T1, Serum-derived human C1s. The experiment in a line: SPR Biacore T200, 37 C, ratio of dissociation rates pH 5.8 / pH 7.4, 1.2 mM CaCl2. As for the experimental part: as §1
For assay [3], the target named is T1, Serum-derived human C1s. The experiment in a line: SPR Biacore T200, 37 C, antibody captured on protein A/G, pH 5.8, 1.2 mM CaCl2; marked *: not accurately determined, low binding response. As to the method: as §1
The target in assay [4] is T1, Serum-derived human C1s. The experiment in a line: SPR Biacore T200, 37 C, ratio of dissociation rates pH 5.8 / pH 7.4, 1.2 mM CaCl2. As for the experimental part: (§2) The binding affinity of all histidine-substituted variants at pH 7.4 and pH 5.8 were determined at 37 degrees C. using Biacore T200 instrument (GE Healthcare). Recombinant Protein A/G (Pierce) was immobilized onto all flow cells of a CM4 sensor chip using amine coupling kit (GE Healthcare). Antibodies and analytes were prepared in 7(+) buffer (20 mM ACES, 150 mM NaCl, 1.2 mM CaCl2), 0.05% Tween 20, 0.005% NaN3, pH 7.4) or 5(+) buffer (20 mM ACES, 150 mM NaCl, 1.2 mM CaCl2, 0.05% Tween 20, 0.005% NaN3, pH 5.8). Each antibody was captured onto the sensor surface by protein A/G. Antibody capture levels were aimed at 200 resonance unit (RU). Serum-derived human C1s was injected at 50 nM, followed by dissociation. Sensor surface was regenerated each cycle with 10 mM Glycine-HCl pH 1.5. […] An additional dissociation phase at pH 5.8 was integrated immediately after the dissociation phase at pH 7.4. This dissociation rate in 5(+) buffer was determined by processing and fitting data using Scrubber 2.0 (BioLogic Software) curve fitting software (Table 9).
The source holds these as a separate data set.

The target in assay [5] is T1, Serum-derived human C1s. The experiment in a line: SPR Biacore T200, 37 C, antibody captured on protein A/G, C1s at 50 nM, pH 7.4, 1.2 mM CaCl2. As for the experimental part: as §2
For assay [6], the target named is T1, Serum-derived human C1s. The assay can be described thus: SPR Biacore T200, 37 C, added dissociation phase at pH 5.8 (1.2 mM CaCl2) straight after that at pH 7.4. As for the experimental part: as §2
Assay [7] addresses T2, human C1s (human, UniProt P09871 16-688).
T2 construct: Analyte in the Biacore assays; also called hC1s; serum-derived human C1s (CompTech)
T2 sequence: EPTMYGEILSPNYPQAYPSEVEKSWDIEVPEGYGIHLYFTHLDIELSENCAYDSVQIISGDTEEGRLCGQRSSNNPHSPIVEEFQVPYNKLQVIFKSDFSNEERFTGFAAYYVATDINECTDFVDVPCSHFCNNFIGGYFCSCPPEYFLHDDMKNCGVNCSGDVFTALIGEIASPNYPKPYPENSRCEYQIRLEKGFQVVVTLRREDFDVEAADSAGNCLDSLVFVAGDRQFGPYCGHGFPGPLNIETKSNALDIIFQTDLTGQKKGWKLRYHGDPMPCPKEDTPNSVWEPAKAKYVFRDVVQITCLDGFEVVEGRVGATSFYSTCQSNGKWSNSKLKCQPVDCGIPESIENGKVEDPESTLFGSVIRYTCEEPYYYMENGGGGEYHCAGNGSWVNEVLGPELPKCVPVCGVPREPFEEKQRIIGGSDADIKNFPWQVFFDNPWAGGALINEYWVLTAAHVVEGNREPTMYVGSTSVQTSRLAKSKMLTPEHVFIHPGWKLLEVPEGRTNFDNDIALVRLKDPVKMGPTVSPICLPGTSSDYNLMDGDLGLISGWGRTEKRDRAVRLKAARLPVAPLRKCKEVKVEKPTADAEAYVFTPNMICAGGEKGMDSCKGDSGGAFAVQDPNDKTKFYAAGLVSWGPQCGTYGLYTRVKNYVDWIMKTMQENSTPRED
The assay can be described thus: SPR; KD at pH 5.8 over KD at pH 7.4, both 1.2 mM Ca. As to the method: as §1, with “software. […]” for “software.”

For assay [8], the target named is T2, human C1s. The experiment in a line: SPR (Biacore T200, 37C), Ab captured on protein A/G, serum C1s 12.5 and 50 nM; pH 7.4, 1.2 mM Ca. As for the experimental part:
as §1

Assay [9] deals with T2, human C1s. The assay can be described thus: SPR (Biacore T200, 37C), Ab captured on protein A/G, serum C1s 200 and 800 nM; pH 5.8, 1.2 mM Ca. As for the experimental part:
as §1

Assay [10] has as its target T2, human C1s. The assay can be described thus: SPR; koff (5.8+ of 775+): extra dissociation phase at pH 5.8 (1.2 mM Ca) right after the pH 7.4 dissociation, Scrubber fit. As for the experimental part: as §1

B1: IPN92H0286/IPN93L0205-SG136 (antibody, human IgG1, kappa, name in Kabat numbering)
heavy: EVMLVESGGGLVKPGGSLRLSCAASGFTFSNKAMSWVRQAPGKGLEWVATISSGGSHTYYLDSVKHRFTISRDNSKDTLYLQMNSLRAEDTALYYCARLFTGHAMDYWGQGTLVTVSSASTKGPSVFPLAPSSKSTSGGTAALGCLVKDYFPEPVTVSWNSGALTSGVHTFPAVLQSSGLYSLSSVVTVPSSSLGTQTYICNVNHKPSNTKVDKKVEPKSCDKTHTCPPCPAPELRRGPSVFLFPPKPKDTLMISRTPEVTCVVVDVSHEDPEVKFNWYVDGVEVHNAKTKPREEQYNSTYRVVSVLTVLHQDWLNGKEYKCKVSNKGLPSSIEKTISKAKGQPREPQVYTLPPSREEMTKNQVSLTCLVKGFYPSDIAVEWESNGQPENNYKTTPPVLDSDGSFFLYSKLTVDKSRWQQGNVFSCSVMHEALHNHYTQKSLSLSP
light: QIVLTQSPATLSLSPGERATLSCTASSSVSSSRLHWYQQKPGKAPKLWIYSTSNLASGVPSRFSGSGSGTDYTLTISSLQPEDFATYYCHQYHRHPPITFGQGTKLEIKRTVAAPSVFIFPPSDEQLKSGTASVVCLLNNFYPREAKVQWKVDNALQSGNSQESVTEQDSKDCTYSLSSTLTLSKADYEKHKVYACEVTHQGLSSPVTKSFNRGEC
notes: Substitutions are numbered by Kabat
In general, Kd refers to the equilibrium constant for the complex coming apart. Low values mean a tighter complex, high ones a looser complex. One may read the kon as the second-order rate constant of association. As a reminder, the koff is the first-order rate constant of dissociation. High values mean fast dissociation, low ones slow dissociation. As to B1, in the assay with Serum-derived human C1s [1], the Kd amounted to 1.43 nM and the kon turned out to be 574000 M⁻¹ s⁻¹. In addition, in the assay with Serum-derived human C1s [2], the “koff (5.8+ of 775+)/koff (7.4+)” value is 16.3. Moreover, in the assay with Serum-derived human C1s [3], the affinity, expressed as Kd, was 8530 nM; the koff worked out at 0.0237 s⁻¹; the kon came out at 2780 M⁻¹ s⁻¹.

B2: C1_IPN009VH2-SG4GK/IPN009VK3-SK1 (antibody, human IgG4 S228P, kappa)
heavy: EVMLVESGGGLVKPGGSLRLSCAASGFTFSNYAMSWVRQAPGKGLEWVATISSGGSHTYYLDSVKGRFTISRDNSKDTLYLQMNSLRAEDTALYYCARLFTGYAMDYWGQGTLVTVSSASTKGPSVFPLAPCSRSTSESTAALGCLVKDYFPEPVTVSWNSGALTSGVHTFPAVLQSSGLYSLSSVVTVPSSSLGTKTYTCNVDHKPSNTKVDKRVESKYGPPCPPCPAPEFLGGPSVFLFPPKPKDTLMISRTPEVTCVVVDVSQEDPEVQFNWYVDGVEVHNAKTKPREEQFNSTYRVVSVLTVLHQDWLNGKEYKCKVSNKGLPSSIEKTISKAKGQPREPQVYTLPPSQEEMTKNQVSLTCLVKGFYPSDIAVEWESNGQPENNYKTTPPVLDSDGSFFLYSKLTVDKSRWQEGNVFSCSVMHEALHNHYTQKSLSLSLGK
light: QIVLTQSPATLSLSPGERATLSCTASSSVSSSYLHWYQQKPGKAPKLWIYSTSNLASGVPSRFSGSGSGTDYTLTISSLQPEDFATYYCHQYYRLPPITFGQGTKLEIKRTVAAPSVFIFPPSDEQLKSGTASVVCLLNNFYPREAKVQWKVDNALQSGNSQESVTEQDSKDSTYSLSSTLTLSKADYEKHKVYACEVTHQGLSSPVTKSFNRGEC
notes: also called IPN009VH2/IPN009VK3; IPN09VH2/IPN09VK3
Turning to B2, in the assay with Serum-derived human C1s [4], the “koff (5.8+ of 775+)/koff (7.4+)” value is 0.4. Further, in the assay with Serum-derived human C1s [5], the koff was 0.00037 s⁻¹ and the kon was 298000 M⁻¹ s⁻¹. Besides, the koff with Serum-derived human C1s [6] is 0.000148 s⁻¹.

B3: C1_IPN92H0012-SG4GK/IPN009VK3-SK1 (antibody, V domains shown)
VH: EVMLVESGGGLVKPGGSLRLSCAASGFTFSNYAMSWVRQAPGKGLEWVATHSSGGSHTYYLDSVKGRFTISRDNSKDTLYLQMNSLRAEDTALYYCARLFTGYAMDYWGQGTLVTVSS
VL: QIVLTQSPATLSLSPGERATLSCTASSSVSSSYLHWYQQKPGKAPKLWIYSTSNLASGVPSRFSGSGSGTDYTLTISSLQPEDFATYYCHQYYRLPPITFGQGTKLEIKR
notes: Single histidine variant of the VH IPN009VH2, with SG4GK and SK1 constant regions
Turning to B3, the “koff (5.8+ of 775+)/koff (7.4+)” value with Serum-derived human C1s [4] was 0.57. In the assay with Serum-derived human C1s [5], this molecule gave a koff of 0.00192 s⁻¹ and a kon of 183000 M⁻¹ s⁻¹. In the assay with Serum-derived human C1s [6], this molecule showed a koff of 0.00109 s⁻¹.

B4: IPN92H0281/IPN93L0024-SG136 (antibody, human IgG1, kappa, name in Kabat numbering)
heavy: EVMLVESGGGLVKPGGSLRLSCAASGFTFSNYAMSWVRQAPGKGLEWVATISSGGSKTYELDSVDERFTISRDNSKDTLYLQMNSLRAEDTALYYCARLFTKHAMDYWGQGTLVTVSSASTKGPSVFPLAPSSKSTSGGTAALGCLVKDYFPEPVTVSWNSGALTSGVHTFPAVLQSSGLYSLSSVVTVPSSSLGTQTYICNVNHKPSNTKVDKKVEPKSCDKTHTCPPCPAPELRRGPSVFLFPPKPKDTLMISRTPEVTCVVVDVSHEDPEVKFNWYVDGVEVHNAKTKPREEQYNSTYRVVSVLTVLHQDWLNGKEYKCKVSNKGLPSSIEKTISKAKGQPREPQVYTLPPSREEMTKNQVSLTCLVKGFYPSDIAVEWESNGQPENNYKTTPPVLDSDGSFFLYSKLTVDKSRWQQGNVFSCSVMHEALHNHYTQKSLSLSP
light: QIVLTQSPATLSLSPGERATLSCTASSSVSSSYLHWYQQKPGKAPKLWIYSTSNLASGVPSRFSGSGSGTDYTLTISSLQPEDFATYYCHQYYRLHPITFGQGTKLEIKRTVAAPSVFIFPPSDEQLKSGTASVVCLLNNFYPREAKVQWKVDNALQSGNSQESVTEQDSKDCTYSLSSTLTLSKADYEKHKVYACEVTHQGLSSPVTKSFNRGEC
notes: also called IPN92H0281/IPN93L0024 (lot PPU2047); IPN92H281/IPN93L0024-SG136
On to B4, for which, in the assay with human C1s [7], the “KD (5.8+)/KD (7.4+)” value turned out to be 60.9. Further, the results for the Kd in the assay with human C1s [8] and with human C1s [9] were 2.02 nM and 123 nM, respectively. Moreover, the results for the koff in the assay with human C1s [8], with human C1s [9] and in the assay with human C1s [10] were 0.000645 s⁻¹, 0.0267 s⁻¹ and 0.0247 s⁻¹, respectively. The kon with human C1s [9] is 217000 M⁻¹ s⁻¹.

B5: C1_IPN009VH2-SG4GK/IPN93L0026-SK1 (antibody, V domains shown)
VH: EVMLVESGGGLVKPGGSLRLSCAASGFTFSNYAMSWVRQAPGKGLEWVATISSGGSHTYYLDSVKGRFTISRDNSKDTLYLQMNSLRAEDTALYYCARLFTGYAMDYWGQGTLVTVSS
VL: QIVLTQSPATLSLSPGERATLSCTASSSVSSSYLHWYQQKPGKAPKLWIYSTSNLASGVPSRFSGSGSGTDYTLTISSLQPEDFATYYCHQYYRLPPHTFGQGTKLEIKR
notes: It is read here as I96H (Kabat) in the VL IPN009VK3
In the case of B5, the “koff (5.8+ of 775+)/koff (7.4+)” value with Serum-derived human C1s [4] turned out to be 0.77. In the assay with Serum-derived human C1s [5], this molecule yielded a Kd of 4.28 nM, a koff of 0.0015 s⁻¹ and a kon of 350000 M⁻¹ s⁻¹. The koff with Serum-derived human C1s [6] came to 0.00115 s⁻¹.
